The source of these data is the DeepSol protein solubility set.

This series is described as follows: soluble on expression in E. coli; label from the status in PepcDB or PDB records.
Take “MKKIGFIGLGNMGLPMSKNLVKSGYTVYGVDLNKEAEASFEKEGGIIGLSISKLAETCDVVFTSLPSPRAVEAVYFGAEGLFENGHSNVVFIDTSTVSPQLNKQLEEAAKEKKVDFLAAPVSGGVIGAENRTLTFMVGGSKDVYEKTESIMGVLGANIFHVSEQIDSGTTVKLINNLLIGFYTAGVSEALTLAKKNNMDLDKMFDILNVSYGQSRIYERNYKSFIAPENYEPGFTVNLLKKDLGFAVDLAKESELHLPVSEMLLNVYDEASQAGYGENDMAALYKKVSEQLISNQK”: the “soluble on expression in E. coli” value is recorded as “soluble”.

As to “MGSDKIHHHHHHMPKVEIAPSEIKIPDNVLKAKLGFGGAEEIPEEFRKTVNRAYEELLDAAKPVVLWRDFEVDGSLSFDDMRLTGELATKHLSGSKIITVFLATLGKKVDEKIEEYFRKGEDLLAFFIDGIASEMVEYALRKVDAELRMKRSNLEGSFRISPGYGDLPLSLNKKIAEIFKEEVDVNVIEDSYVLVPRKTITAFVGWREKNEKQT”, the “soluble on expression in E. coli” value is on record as “soluble”.

“MRVCVIGAGLSGLAMGHALKERGISFVCLEKAPDVGGIWRQPGAGERGPGYQSLHLNTARQLTGYADFPMPSDYPLYPRHDQVAAYLRSFAEWAGLLDHVELRTEVLSVRQDSDGSWTVVSRDADGAQSARRFEQVVVASGHHTDPALPDPLPAGADSFAGTILHSLDYRDGGDFAGRRVVVVGLGASAVDIAADLSRHAERTLLSVRRGLHIVPKQVFGMSLDEIAEAPWWNEMPFAERRRWVEQALLVARGRLSDYGLPEPDHPILSSATTLSDEILSRIRHGAVTPKPAIASFESDRVVFTDGSSEAADTVVYCTGFHMTFPFLPPGCPVAADGAVELYRRIVPADRPGLYFVGLVRPAGALTRLVEAQAQWVARLVDGAAALPGTEEMREEISTYLAGIVERYGRTRGASIQVDVSPYLAEFREPLPVLEHHHHHH”: the “soluble on expression in E. coli” value is “soluble”.

On to “MPWIAKRRGHDADFFIMRIPRIYHPELLTSGTQISLCEDAANHIGRVLRMGPGQALQLFDGSNQVFDAEIISASKKSVEVQVMKGEIDDRESPLHIHLGQVMSRGEKMEFTIQKSIELGVSLITPLFSERCGVKLDSERLNKKRQQWQKIAIAACEQCGRNRVPEIRPPMALEAWCAEQDSGLKLNLHPRAHASINTLPLPVERVRLLIGPEGGLSADEIAMTARYQFTDILLGPRVLRTETTALTAITALQVRFGDLG”, for which the “soluble on expression in E. coli” value is given as “not soluble”.

Take “MEEDKNTLDLHTEAREEDRVAKAVALFKEGYNCSQSVVTAFADLYGFTREQALHMSASFGGGIGRMRETCGAACGMFLLAGLEKCAIEGKDRESKAANYALVQELAEEFKKRNGALRCADLLGLSGKEPVVSTPEARTERYYAKRPCARMVEEAARIWSEHLEKQKK”: the “soluble on expression in E. coli” value is reported as “not soluble”.

In the case of “MDMTYNMRNAMASSRNMEEPQYDMSTIDLTQNSMNTNYLMNGSVLTNAYNNDYIVNNRDKYTGDMISQLKIDQGIPTYSHTLPMNGTTLADTNDSLNIQGMMRTNMDTTGFDGYSHIMNYNNTQNTIQTNPITYRMEDYNNLNNDVMYINPTTGEKFSAEYVNNIPTNDSDNMLYSNNFKNNSINMNTLLNSHYNNLPYPMPIYESMNNPQMYMQHMNQKQTVNIPLQHGEKKSAARNISTVNKRRIKTKKFFPCC”, the “soluble on expression in E. coli” value is “not soluble”.

With “MIILMSKPLSEKKTSNNISDLIYGLLKEDIFNFVLKPGQRFTETDLSERYEASRTPIRQALYRLEQEGFVHVHFRSGWEIRPLEFKYYQELFDLRMILEKEAVKRLCELEHPEQLPALIELKKMWLIAPVDYLTDTKTLVLQSEDFHCALVRAAGNQQIAKIHQEASEKIRIVLSLGAMKEFDIAHAYQDHGAILQCILNKDAEQAIHLAEHHVLESIHEVKNITLQMISAIH”, the “soluble on expression in E. coli” value is “not soluble”.

With “AHHHHHHGSILDVRGLKPPQPTLMILENLGKLKIGETLEVLGDKPFVDIIPKLEEAGYQVELNKVGEFFVLKVTKTEGSKELKMEVEECDEELKEITEDTNVAKLLKAYPESLDILVKYGFSPLQNPVLRKTLARTVTLKQAKKLIGMSDERFEEMMKELKKLEKR”, the “soluble on expression in E. coli” value was “soluble”.

In the case of “MGSDKIHHHHHHMIMATLKDIAKLAKVSQATVSRVLNKDETLSVSQKTKHRILMVADELGYQKHLKTTNSPQVRQKIAIVQWYSQQEELNDLYYYSIRIGIEKRAQELDYDIVRYFDNDISKVSADIVGLIAIGKFSTYQIAELEKLSDKLIFVDSDTLNAGYPCVMTDFDNAVVKVLDYFLDHGLTKIGMIAGEEKTTDGRELLIDQRFRTFRNYAYEQDIYNPNYIFIGDFSAQTGYHLMKKAIKELKENLPQAFFIANDSLAIGALRALQEANIPVPNRVSLISFNDTALTKQVFPALSSITVFTKEMGRTAVDILNRQILNPDIIPSMTRLTTQLTLRESSI”, the “soluble on expression in E. coli” value is listed as “not soluble”.

Consider “MGSDKIHHHHHHMNSEASENRPAHSATGTLWSWHGGNGALIWQLMFSSDAVMGIKRFPQERKAAFFCLESSTGRVLRDDFVLTAGDENETPVGDGWMIGLETVHGSRLVCHTYQPGSPEHLGIWAINLPEARVVWSRPDLTFTANLGDAFLAYRSIVFAGFPERDYVLIDPLSGCELEHLGTAHERPNQLRDAAQSEEERQRILLPDTVFDEAGHVENINHGATSVTVFHRMEPVAEGVPGWVSTLSVSECERLVHEDVMASGEPMPVFNSFLIKDDRLYYIREREFLVSFVVS”, for which the “soluble on expression in E. coli” value is “not soluble”.

On to “MGHHHHHHSHMSSRGHSTLPRTLMAPRMISEGDIGGIAQITSSLFLGRGSVASNRHLLQARGITCIVNATIEIPNFNWPQFEYVKVPLADMPHAPIGLYFDTVADKIHSVSRKHGATLVHCAAGVSRSATLCIAYLMKFHNVCLLEAYNWVKARRPVIRPNVGFWRQLIDYERQLFGKSTVKMVQTPYGIVPDVYEKESRHLMPYWGI”, for which the “soluble on expression in E. coli” value was “not soluble”.

For “LKEILDEMFRDEVQKLKYFLEDVKEEDEELYNKIVDALKLFKENYEIEDIKIPKKIRVFLVKNNILFLNPQKGSLKPQSYLVWNAIKMLL”, the “soluble on expression in E. coli” value was “not soluble”.

With “MRNGISPIIIDNTNLHAWEMKPYAVMALENNYEVIFREPDTRWKFNVQELARRNIHGVPKEKIQRMKERYEHNVTFHSVLHAEKPSRANRNQGRNSEPSSGSGYWNTYTELPNRRANGLYSNEGYRRGGHHQGY”, the “soluble on expression in E. coli” value is reported as “not soluble”.

Regarding “MGSDKIHHHHHHMIQIKRGKIVGFNERVGRAFHPAQVAEPAQHAPHQRRLARTEVAFQIEGHAGRQAGRKPRAERKRGGLVGKVATRRRGIIRGMHEQDSPRDFGRLAAQIKQWGRELGFAAIGITDADLSAAEAGLHTWLDKGFHGEMDYMAAHGTKRSRPAELVPGTLRIISARLDYFPPDAVDPDTILATPDAAYVSRYALGRDYHKVLRQRLQTLAERIGAAAGEHHFRVFSDSAPVMEVELATRAGLGWRGKHTLLLNRHHGSWFFLGEIYSDLPLPVDAPEAEHCGTCHACLDACPTQAIVAPYSVDARRCISYLTIELKGSIPLELRSLIGNRIYGCDDCQLVCPWNRFAGTAAVPDFAVRNGLDSAQLVDLFAWSEADFNDRLAGSPIRRIGHERWLRNIAVALGNARPAPAIEAALGTRLDHPSAMVREHVAWALARQQER”, the “soluble on expression in E. coli” value was “not soluble”.

As for “MAHHHHHHMIADDMGLGKTVQALAVAHHYRNEWPVLIVCPLSLVENWTKELMRFCSIPIGRIAIFQNSKVRVTDVHSAVIVPYSSLKSLDTQSTTFQVVILDESHYIKTVDSKRTVAALKLCRVARRVLLLSGTPTLSRPIELYPQLQTIMHPSWTPSKSLFAARYCNAFVGRFGVDYLGHSHMSELHVLLQQFVIRRTKRELGNELPSKIRQLLYVYITPKEKKALEKSVSALRNSFRDGATLPTLGDVASTTNMAQGTGGNLTTCTAGGVTATRNMTAFDLKIATARAKIAAVQDYVKSTTEQMVESGQKVIIFAHHQCMMEAIREAVESVQPKQPLDYIYITGETPAAQREALTTHFRTSTNCHVAVLSMHSCGVGHNLTCATMVVFAELDWNPSTHLQCEDRVHRMGQSSACVIKYLLAEGTSDSVIWPMLQTKLNVTHAVLEDSQAGGEGWSAGADTRRILRSDVPLTPSSPEKKQLTLEGFLSHSGSRPSRPLTQSSDSNAEVLKTSDESPRADTSPDTPFQSPSAVAPAENVLFDIAKLRQQREARKVFHSMPVLGTAGAGSSPVAAVTVTPPPPQIQRQVTLHEVLTNHPANSPTPKNSPQQRTNFHVAVAAKSFNERSGAAHTSSCSSETTVCAPIVSHPVKTLFLTRPASANSSSAASSVKPHAGASAADLSVFSTASKEGSICLAPSPRSEEIRRYNARRTPFILGSTLEKRLRPDDMEDQVS”, the “soluble on expression in E. coli” value is recorded as “not soluble”.

As for “MGSDKIHHHHHHVSTSVTKRPLTLVLASPRGFCAGVDRAIHIVERALEKYGAPVYVRHEIVHNRFVVESLAQKGAVFVEELDEVPDEAAVVFSAHGVPKTVPAEADRRGLTSLDATCPLVTKVHREAELHHAMGRQIIMIGHAGHPEVIGTIGQVPDGTVLLVGTPEEAEKVAPKNASMLAYITQTTLSVDDAAAVTEVLQRRFPEIVGPKREDICYATTNRQAAVKTIAPKCEALMVIGSPNSSNSSRLVEVAARAGCARSVLVQRAAEVDWSLLDGVDRLGITAGASAPEILVEEVVAAARERFDVTIEEIRVTTETVTFKLPQALSE”, the “soluble on expression in E. coli” value is given as “not soluble”.

“MIRVMATGVFDILHLGHIHYLKESKKLGDELVVVVARDSTARNNGKIPIFDENSRLALISELKVVDRAILGHEGDMMKTVIEVKPDIITLGYDQKFDEAELQSKINKLGITVKIVRISKYDGQLNSSSSVRKKIMELIGERY”: the “soluble on expression in E. coli” value is “not soluble”.

For “MTGITVSDSAARRIAKILDSEPGKTALRVSVEGGGCSGFSYKYDLVDAQTEDDIVIEKLGARVLIDSISVPYMDGSEIDFVDDLMGQSFQIRNPNATASCGCGTSFAILEHHHHHH”, the “soluble on expression in E. coli” value is given as “soluble”.

In the case of “MNRKAFLACVLMCVILTGCETAKKISEVIKNPDIQVGSLKEQPSEITVTLLTEPDTNTNAEGESAAVDVQLVYLTDDSKLQAADYDQIASTPLPDVLGKNYIDHQDFNLLPDTIKTLPPIKLDEKTQFIGVVAYFSDDQATEWKQIETVEGTGHHYRLLVHVRQSSIEMKKEDE”, the “soluble on expression in E. coli” value was “soluble”.

As to “MGSDKIHHHHHHMKCSKCSAEAIYYAKYNGLYLCRDHFNEMIEGRVKKEIRKQVEFHGDDVTISVALSGGKDSSVTLFLLHKILGNRKNMKIKAFTVDEGIDGYRPSGLESAKRLCTSLGIDHETISFYDSYGLTLDSIVKTNPVKIPCAYCGPLRRKLINEMADKQDADYVALGLNLDDYSQSILMNVAKGDFDRFIRMSPQTDRKVGLVRRIAPLRTILEKEVVLYAVTNDIPFDSSWCPYYSRAQRNVFREVVNKLSEENPSTKFAILKFFDRVRENITTGHEEVKLKRCKICGAPTERDVCTACSSLQEVNEMMAEH”, the “soluble on expression in E. coli” value is given as “not soluble”.

Take “MTFFPEIDIQKTKSNAKRKLREYPRWRRIANDVDTQKVTATYSFEPRQSHGVPSKPVERLALNRVSAEQELDAIEQAVSMILEPERRRILYDKYLAPYKKADKVIYTELCMSESFYYDTLDIALLAFAELYREGVLLVEEGVFS”: the “soluble on expression in E. coli” value is on record as “not soluble”.

As to “MSLYFLLQKVILPNIDLCTEEQLYFRTQGGKYNYTSRNLLVPRHKVAYFDTFFNAFSIKKWKKYTTLTSLFLRVNIIGRGTITVRHKENGVIRVLKQIDFKSSCNISDEIEIDISKINFGYIYVEWQSDEDSVLNGFELLTKDHVSKSSMALVITTYNRKEAVTKTINRINKTLLTQSEFKDRFKLIVVNNGEAINHPSGNGIIVINNENLGGSGGFMRGLIEAGKINDVKHVIFMDDDGSCEIESICRTHAFLLMAKDKNTVVTGCMLFEDNPAIIHESGAIWHRDFLHYPDKHYLDAREIDSLDTFDNERKIGYGGWWFFAFNINAIEYYSFPFFVRGDDLLFGYMHKKHNIVTLNGVASWQMDFERKISVLNSYLNFRTVAVPALISKREGHHHHHH”, the “soluble on expression in E. coli” value is recorded as “not soluble”.
